One block for each molecule: values may come before it.
Columns and labels:
[1] = Estimated blood concentration after i.v. dose; assay type: in vivo; details: C57BL/6J, whole blood, intravenous; 3 mg/kg, assuming a blood volume of 2 mL for a 25 g mouse
Experimental: To further explore the selectivity of the ligands P32 was tested in a mouse model of C5a-induced neutrophil mobilization (FIG. 6). […] Assuming a mouse blood volume of 2 mL for a 25 g mouse, a concentration of 3 mg/kg would result in Cmax blood concentrations of ˜50 uM, a dose within the active range of this compound from our in vitro studies

[2] = molecular target: T1, human C5a2 (Flp-In CHO-C5a2 membranes) (Homo sapiens, UniProt Q9P296); assay: C5a2 receptor binding, scintillation proximity assay (125I-C5a displacement); details: concentrations up to 1 μM
T1 construct: expressed in transfected cells
Experimental: Membranes were prepared from Flp-In CHO-05a2 cells by a previously described method^46. Briefly, cells were washed with PBS, pH 7.4, and harvested into buffer (50 mM Tris-HCl, pH 7.4, 5 mM MgCl2, 1 mM CaCl2) before homogenizing with a Polytron homogenizer for 3 min on setting 22. Cells were centrifuged at 150×g for 5 min at 4° C. The supernatant was recovered and centrifuged at 22 000×g for 1 h at 4° C. Membrane pellets were then resuspended in 0.4 mL of ice-cold buffer (50 mM Tris-HCl, pH 7.4, 5 mM MgCl2, 1 mM CaCl2, containing 10% glycerol) with aliquots stored at −80° C. The protein concentration of the membrane preparation was determined by Bradford method^47.
C5a2 receptor binding studies were performed using a modification of a previously described scintillation proximity assay (SPA) method^48. Briefly, C5a2 SPA studies were performed in 96-well white isoplates with clear flat bottoms (Perkin Elmer, Waltham, Mass., USA). SPA beads (200 μg/well) were added, following the addition of various concentrations of competing ligands or buffer (6 pM to 500 μM) in a total volume of 80 μL of assay buffer (50 mM Tris-HCl, pH 7.4, 0.5% BSA, 5 mM MgCl2, 1 mM CaCl2). ^125I-C5a (˜20 pM) (specific activity, 2200 Ci mmol^−1) (Perkin Elmer) was added to C5a2 membrane preparations (˜2 μg/well). The final reaction volume per well comprised 20 μL of ligand/buffer, 20 μL of SPA beads, 20 μl of membrane and the assay was initiated by the addition of 20 μL of ^125I-C5a. The plate was then sealed using TopSeal-A (Perkin Elmer) sealing film and incubated with shaking for 1 h at room temperature. Radioligand binding was then assessed for 30 s/well using a 1450 Microbeta scintillation counter (Perkin Elmer).

LPS stimulated HMDM [3] = assay: Cytokine release from LPS stimulated HMDM (ELISA); assay type: cell-based, human; details: C5a1 antagonist PMX53 10 μM pre-incubated 30 min
Experimental: FIG. 4 is a panel of graphs showing the testing P32 and P59 for effects on cytokine release from LPS stimulated HMDM. Measurement of human inflammatory cytokines IL-6 (4A, 4B), TNFα (4C, 4D) and IL-10 (4E, 4F) release from HMDM, 24 h after co-stimulation with LPS (10 ngml^−1) and C5a (0.1-100 nM), P32 or P59 (0.1-100 μM) with or without C5a1 antagonist PMX53 (10 μM) present. Cytokine release was quantified by ELISA. Data is representative of five independent HMDM donors performed in triplicate (n=5). CTRL represents non-stimulated HMDM. Data is normalised to LPS response (100%) for each donor. Error bars represent SEM. *P<0.05, ** P<0.01, *** P<0.001, **** P<0.0001 by one-way ANOVA followed by Dunnett's post hoc test or Sidak's post hoc test for comparisons+/−PMX53.
Briefly, HMDMs were seeded in 96 well tissue culture plates (Nunc) at 100 000 cells/well and allowed to adhere overnight at 37° C. and 5% CO2. The next day HMDMs were stimulated with E. coli derived LPS (10 ng ml^−1) only or LPS (10 ng ml^−1) and either C5a or C5a2 ligands at various concentrations (1-100 nM (C5a) or 0.1-100 μM (C5a2 ligands)). For testing cytokine release in the presence of C5a1 antagonist (PMX53), cells were pre-incubated with PMX53 at 10 μM for 30 min prior to addition of C5a or C5a2 ligands. Following ligand addition HMDMs were returned to 37° C. and 5% CO2 incubator and 24 h after stimulation supernatant was removed from cells and transferred to 96 well polypropylene microplate (Nunc) and stored at −20° C. till needed for assay. Quantification of cytokine release was performed using ELISA kits (BD OptEIA™) as per manufacturers' instructions (BD Biosciences, San Jose, Calif., USA).

C5a1-C5a2 heteromer = molecular target: T2, C5a1-C5a2 heteromer (Homo sapiens, UniProt P21730+Q9P296); details: high concentrations of C5a, previously shown; cited from earlier work
T2 construct: expressed in transfected cells; host or cells: HEK293 (transient)

LPS stimulated HMDM [4] = details: literature reference 33; cited from earlier work
C5a2 = C5a2 (Homo sapiens, UniProt Q9P296); assay: BRET C5a2-β-arrestin 2 recruitment assay in HEK293 cells; assay type: cell-based; design: expressed in transfected cells; host or cells: HEK293 (transient)
Experimental: Assays were performed as a ligand-induced BRET experiment similar to previously described^17, 31, 49. In brief, HEK293 cells were transiently transfected with either C5a1-Rluc8 and β-arrestin 2-Venus or C5a2-Venus and β-arrestin 2-Rluc8 or C5a1-Rluc8 and C5a2-Venus in a 100-mm dish. 24 h after transfection cells were collected and transferred to a 96-well white microplate (Corning, N.Y., USA) in phenol-red free DMEM containing 5% FBS and 25 mM HEPES (Life Technologies). Cells were allowed to settle for 24 h and then were incubated with 30 μM Enduren (Promega, Madison, Wis., USA) for 2 h at 37° C. and 5% CO2 to ensure that the substrate had reached equilibrium. Following incubation BRET baseline measurements were taken for 15 min then ligands were added to plate and BRET measurements were taken for a further 1 h at 37° C. using a POLARstar optima microplate reader (BMG Labtech, Ortenberg, Germany). Filtered light emissions were sequentially measured for 1 s in each of the following windows 460-490 nm and 520-550 nm, both before and following ligand addition. The ligand-induced BRET ratio was calculated by subtracting the ratio of 520-550 nm emission over the 460-490 nm emission for a vehicle-treated sample from a ligand-treated sample of the same aliquot of cells in triplicate. The BRET ratio was calculated by subtracting the ratio of 520-550 nm emission over the 460-490 nm emission for a cell sample containing the C5a1-Rluc8 or β-arrestin 2-Rluc8 construct from a cell sample containing both the C5a1-Rluc8 and β-arrestin 2-Venus or C5a2-Venus and β-arrestin 2-Rluc8 or C5a1-Rluc8 and C5a2-Venus constructs. Peptides were also tested for ligand-induced β-arrestin 2 recruitment at 100 μM using DiscoveRx PathHunter kits for human C5a1 and C5a2 (DiscoveRx Corporation. Birmingham, UK), according to the manufacturer's instructions.

T1 sequence (Q9P296 whole entry): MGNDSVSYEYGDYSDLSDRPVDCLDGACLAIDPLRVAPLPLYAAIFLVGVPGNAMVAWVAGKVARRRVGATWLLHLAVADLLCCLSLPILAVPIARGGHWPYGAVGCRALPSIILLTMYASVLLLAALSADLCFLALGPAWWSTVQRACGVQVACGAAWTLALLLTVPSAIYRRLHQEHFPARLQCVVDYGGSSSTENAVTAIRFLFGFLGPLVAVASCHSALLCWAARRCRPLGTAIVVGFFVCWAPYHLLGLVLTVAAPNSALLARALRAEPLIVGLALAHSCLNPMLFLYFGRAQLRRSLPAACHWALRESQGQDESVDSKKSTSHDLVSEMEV
C5a2, sequence (Q9P296 whole entry): as above
C5a2, sequence (P32121 whole entry partner): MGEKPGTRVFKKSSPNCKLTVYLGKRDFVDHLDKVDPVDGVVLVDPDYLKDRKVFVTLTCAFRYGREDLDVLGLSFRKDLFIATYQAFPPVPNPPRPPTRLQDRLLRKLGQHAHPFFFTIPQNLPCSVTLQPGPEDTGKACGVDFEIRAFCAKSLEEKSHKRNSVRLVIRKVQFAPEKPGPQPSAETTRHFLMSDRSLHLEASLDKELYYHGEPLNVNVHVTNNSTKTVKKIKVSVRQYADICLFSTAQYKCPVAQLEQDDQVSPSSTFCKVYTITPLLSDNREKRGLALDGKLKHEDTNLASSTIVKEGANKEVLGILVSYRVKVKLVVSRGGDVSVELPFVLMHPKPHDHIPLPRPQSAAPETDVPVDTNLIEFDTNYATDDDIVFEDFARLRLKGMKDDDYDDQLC
T2 sequence (P21730 whole entry): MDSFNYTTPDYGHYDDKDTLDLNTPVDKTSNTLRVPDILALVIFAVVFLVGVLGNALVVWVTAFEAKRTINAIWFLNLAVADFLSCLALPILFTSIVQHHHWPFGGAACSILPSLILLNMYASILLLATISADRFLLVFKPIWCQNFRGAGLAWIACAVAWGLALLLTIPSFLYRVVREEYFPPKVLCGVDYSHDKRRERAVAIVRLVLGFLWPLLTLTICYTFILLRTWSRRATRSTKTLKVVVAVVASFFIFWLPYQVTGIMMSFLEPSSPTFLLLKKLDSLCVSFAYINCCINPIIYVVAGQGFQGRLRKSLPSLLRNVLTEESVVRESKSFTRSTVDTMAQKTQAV
T2 sequence (Q9P296 whole entry): as the sequence (Q9P296 whole entry) above

Molecule: C3a: human isolated complement protein purchased from Merck Biosciences [Peptide C3a]
- displacement of 125I-C5a from Flp-In CHO-C5a2 membrane preparations [2]: do not bind

B1: C5a-des Arg: human isolated complement protein purchased from Merck Biosciences (protein)
chain: TLQKKIEEIAAKYKHSVVKKCCYDGACVNNDETCEQRAARISLGPRCIKAFTECCVVASQLRANISHKDMQLG
- displacement of 125I-C5a from Flp-In CHO-C5a2 membrane preparations [2]: full inhibition

Second part, led by results:

- Cmax [1]: ~50 µM
Molecule: Ac-RHYPYWR-OH [Peptide P32, Ac-RHYPYWR-OH]

- displacement of 125I-C5a from Flp-In CHO-C5a2 membrane preparations [2]: do not bind
Molecule: C3a-des Arg: human isolated C3a-des Arg/acylation-stimulating protein (ASP), purchased from Merck Biosciences

- displacement of 125I-C5a from Flp-In CHO-C5a2 membrane preparations [2]: full inhibition
- C5a2-β-arrestin 2 BRET Recruitment (% of C5a) (C5a2): 100 % of C5a
- EC50 (C5a2; calculated at ~40 min after ligand addition): 50.3 ± 4.2 nM
B2: C5a: complement activation peptide; human recombinant C5a purchased from Sino Biologicals (protein)
chain: TLQKKIEEIAAKYKHSVVKKCCYDGACVNNDETCEQRAARISLGPRCIKAFTECCVVASQLRANISHKDMQLGR
- IL-6 release from LPS stimulated HMDM in the presence of PMX53 (LPS stimulated HMDM [3]): completely blocked
- IL-10 release from LPS stimulated HMDM in the presence of PMX53 (LPS stimulated HMDM [3]): completely blocked
- TNFα release from LPS stimulated HMDM in the presence of PMX53 (LPS stimulated HMDM [3]): completely blocked
- up-regulation of heteromer formation between C5a1-C5a2 (C5a1-C5a2 heteromer): can up-regulate heteromer formation
- IL-6 release from LPS stimulated HMDMs (LPS stimulated HMDM [4]): dose-dependently inhibits
- IL-10 release from LPS stimulated HMDMs (LPS stimulated HMDM [4]): increasing the release
- TNFα release from LPS stimulated HMDMs (LPS stimulated HMDM [4]): dose-dependently inhibits
